Laboratory results reported in patent US6534281.
Values belong to the substance of their own block, whether it stands above or below them.

Assays:
[1] = molecular target: human proinsulin (human) (UniProt P01308); assay: sandwich immunoassay, two-step, against C-peptide calibration; proinsulin 200 ng/ml; 9103 on particles, labeled antibody PEP-001
[2] = molecular target: human C-peptide (human); assay: sandwich immunoassay, one-step; 9103 on particles, labeled antibody 9101
[3] = molecular target: modified C-peptide (human C-peptide having Arg-Arg bound to its N-terminal and Lys-Arg bound to its C-terminal) (human); assay: sandwich immunoassay, two-step, against C-peptide calibration; modified C-peptide 5 ng/ml; 9103 on particles, labeled antibody 9101
[4] = molecular target: human proinsulin (human) (UniProt P01308); assay: sandwich immunoassay, two-step, against C-peptide calibration; proinsulin 400 ng/ml; 9103 on particles, labeled antibody PEP-001
[5] = molecular target: human proinsulin (human) (UniProt P01308); assay: sandwich immunoassay, one-step, against C-peptide calibration; proinsulin 400 ng/ml; 9103 on particles, labeled antibody 9101
[6] = molecular target: human C-peptide (human); assay: sandwich immunoassay, two-step; 9103 on particles, labeled antibody PEP-001
[7] = molecular target: modified C-peptide (human C-peptide having Arg-Arg bound to its N-terminal and Lys-Arg bound to its C-terminal) (human); assay: sandwich immunoassay, two-step, against C-peptide calibration; modified C-peptide 5 ng/ml; 9103 on particles, labeled antibody PEP-001
[8] = molecular target: modified C-peptide (human C-peptide having Arg-Arg bound to its N-terminal and Lys-Arg bound to its C-terminal) (human); assay: sandwich immunoassay, one-step, against C-peptide calibration; modified C-peptide 5 ng/ml; 9103 on particles, labeled antibody PEP-001
[9] = molecular target: human proinsulin (human) (UniProt P01308); assay: sandwich immunoassay, one-step, against C-peptide calibration; proinsulin 200 ng/ml; 9103 on particles, labeled antibody PEP-001
[10] = molecular target: human C-peptide (human); assay: sandwich immunoassay, two-step; 9103 on particles, labeled antibody 9101
[11] = molecular target: human proinsulin (human) (UniProt P01308); assay: sandwich immunoassay, two-step, against C-peptide calibration; proinsulin 200 ng/ml; 9103 on particles, labeled antibody 9101
[12] = molecular target: human proinsulin (human) (UniProt P01308); assay: sandwich immunoassay, two-step, against C-peptide calibration; proinsulin 50 ng/ml; 9103 on particles, labeled antibody 9101
[13] = molecular target: human proinsulin (human) (UniProt P01308); assay: sandwich immunoassay, one-step, against C-peptide calibration; proinsulin 50 ng/ml; 9103 on particles, labeled antibody PEP-001
[14] = molecular target: human proinsulin (human) (UniProt P01308); assay: sandwich immunoassay, one-step, against C-peptide calibration; proinsulin 50 ng/ml; 9103 on particles, labeled antibody 9101
[15] = molecular target: human proinsulin (human) (UniProt P01308); assay: sandwich immunoassay, two-step, against C-peptide calibration; proinsulin 400 ng/ml; 9103 on particles, labeled antibody 9101
[16] = molecular target: human C-peptide (human); assay: sandwich immunoassay, one-step; 9103 on particles, labeled antibody PEP-001
[17] = molecular target: human proinsulin (human) (UniProt P01308); assay: sandwich immunoassay, one-step, against C-peptide calibration; proinsulin 200 ng/ml; 9103 on particles, labeled antibody 9101
[18] = molecular target: modified C-peptide (human C-peptide having Arg-Arg bound to its N-terminal and Lys-Arg bound to its C-terminal) (human); assay: sandwich immunoassay, one-step, against C-peptide calibration; modified C-peptide 5 ng/ml; 9103 on particles, labeled antibody 9101
[19] = molecular target: human proinsulin (human) (UniProt P01308); assay: sandwich immunoassay, one-step, against C-peptide calibration; proinsulin 400 ng/ml; 9103 on particles, labeled antibody PEP-001
[20] = molecular target: human proinsulin (human) (UniProt P01308); assay: sandwich immunoassay, two-step, against C-peptide calibration; proinsulin 50 ng/ml; 9103 on particles, labeled antibody PEP-001
[21] = molecular target: human proinsulin (human) (UniProt P01308); assay: sandwich immunoassay, one-step, against C-peptide calibration; proinsulin 200 ng/ml; PEP-001 on particles, labeled antibody 9103
[22] = molecular target: human proinsulin (human) (UniProt P01308); assay: sandwich immunoassay, one-step, against C-peptide calibration; proinsulin 400 ng/ml; PEP-001 on particles, labeled antibody CPT-3-F11
[23] = molecular target: human proinsulin (human) (UniProt P01308); assay: sandwich immunoassay, one-step, against C-peptide calibration; proinsulin 400 ng/ml; PEP-001 on particles, labeled antibody 9103
[24] = molecular target: human proinsulin (human) (UniProt P01308); assay: sandwich immunoassay, one-step, against C-peptide calibration; proinsulin 200 ng/ml; PEP-001 on particles, labeled antibody CPT-3-F11
[25] = molecular target: human proinsulin (human) (UniProt P01308); assay: sandwich immunoassay, two-step, against C-peptide calibration; proinsulin 200 ng/ml; PEP-001 on particles, labeled antibody CPT-3-F11
[26] = molecular target: human C-peptide (human); assay: sandwich immunoassay, one-step; PEP-001 on particles, labeled antibody CPT-3F-11
[27] = molecular target: human proinsulin (human) (UniProt P01308); assay: sandwich immunoassay, two-step, against C-peptide calibration; proinsulin 50 ng/ml; PEP-001 on particles, labeled antibody 9103
[28] = molecular target: human C-peptide (human); assay: sandwich immunoassay, two-step; PEP-001 on particles, labeled antibody 9103
[29] = molecular target: human proinsulin (human) (UniProt P01308); assay: sandwich immunoassay, one-step, against C-peptide calibration; proinsulin 50 ng/ml; PEP-001 on particles, labeled antibody 9103
[30] = molecular target: human C-peptide (human); assay: sandwich immunoassay, one-step; PEP-001 on particles, labeled antibody 9103
[31] = molecular target: human proinsulin (human) (UniProt P01308); assay: sandwich immunoassay, two-step, against C-peptide calibration; proinsulin 400 ng/ml; PEP-001 on particles, labeled antibody 9103
[32] = molecular target: human proinsulin (human) (UniProt P01308); assay: sandwich immunoassay, two-step, against C-peptide calibration; proinsulin 50 ng/ml; PEP-001 on particles, labeled antibody CPT-3-F11
[33] = molecular target: human proinsulin (human) (UniProt P01308); assay: sandwich immunoassay, one-step, against C-peptide calibration; proinsulin 50 ng/ml; PEP-001 on particles, labeled antibody CPT-3-F11
[34] = molecular target: modified C-peptide (human C-peptide having Arg-Arg bound to its N-terminal and Lys-Arg bound to its C-terminal) (human); assay: sandwich immunoassay, two-step, against C-peptide calibration; modified C-peptide 5 ng/ml; PEP-001 on particles, labeled antibody CPT-3F-11
[35] = molecular target: human C-peptide (human); assay: sandwich immunoassay, two-step; PEP-001 on particles, labeled antibody CPT-3F-11
[36] = molecular target: human proinsulin (human) (UniProt P01308); assay: sandwich immunoassay, two-step, against C-peptide calibration; proinsulin 200 ng/ml; PEP-001 on particles, labeled antibody 9103
[37] = molecular target: human proinsulin (human) (UniProt P01308); assay: sandwich immunoassay, two-step, against C-peptide calibration; proinsulin 400 ng/ml; PEP-001 on particles, labeled antibody CPT-3-F11
[38] = molecular target: modified C-peptide (human C-peptide having Arg-Arg bound to its N-terminal and Lys-Arg bound to its C-terminal) (human); assay: sandwich immunoassay, one-step, against C-peptide calibration; modified C-peptide 5 ng/ml; PEP-001 on particles, labeled antibody CPT-3F-11
[39] = molecular target: modified C-peptide (human C-peptide having Arg-Arg bound to its N-terminal and Lys-Arg bound to its C-terminal) (human); assay: sandwich immunoassay, two-step, against C-peptide calibration; modified C-peptide 5 ng/ml; PEP-001 on particles, labeled antibody 9103
[40] = molecular target: modified C-peptide (human C-peptide having Arg-Arg bound to its N-terminal and Lys-Arg bound to its C-terminal) (human); assay: sandwich immunoassay, one-step, against C-peptide calibration; modified C-peptide 5 ng/ml; PEP-001 on particles, labeled antibody 9103

Sequence of UniProt P01308 (P01308 25-110): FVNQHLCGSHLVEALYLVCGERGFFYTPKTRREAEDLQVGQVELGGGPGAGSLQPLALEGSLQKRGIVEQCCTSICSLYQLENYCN
Sequence of modified C-peptide (human C-peptide having Arg-Arg bound to its N-terminal and Lys-Arg bound to its C-terminal) (human) (peptide, as listed by the source): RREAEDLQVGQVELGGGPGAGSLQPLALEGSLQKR
Sequence of human C-peptide (human) (peptide, as listed by the source): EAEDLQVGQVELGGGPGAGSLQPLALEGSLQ

Cross-reactivity (%) to Human Proinsulin [1]: > 30% | 2S/N value [2]: 0.117 ng/mL | Cross-reactivity (%) to Modified C-peptide [3]: < 0.5% | Cross-reactivity (%) to Human Proinsulin [4]: > 15% | Cross-reactivity (%) to Human Proinsulin [5]: 6.9% | 2S/N value [6]: 0.018 ng/mL | Cross-reactivity (%) to Modified C-peptide [7]: 38.6% | Cross-reactivity (%) to Modified C-peptide [8]: 58.2% | Cross-reactivity (%) to Human Proinsulin [9]: > 30% | 2S/N value [10]: 0.167 ng/mL | Cross-reactivity (%) to Human Proinsulin [11]: 4.4% | Cross-reactivity (%) to Human Proinsulin [12]: 2.3% | Cross-reactivity (%) to Human Proinsulin [13]: 58% | Cross-reactivity (%) to Human Proinsulin [14]: 3.2% | Cross-reactivity (%) to Human Proinsulin [15]: 6.8% | 2S/N value [16]: 0.009 ng/mL | Cross-reactivity (%) to Human Proinsulin [17]: 5.8% | Cross-reactivity (%) to Modified C-peptide [18]: < 0.5% | Cross-reactivity (%) to Human Proinsulin [19]: > 15% | Cross-reactivity (%) to Human Proinsulin [20]: 65.2%
Substance: anti-human C-peptide monoclonal antibody 9103 (Medix Biochemica)

Cross-reactivity (%) to Human Proinsulin [21]: > 30% | Cross-reactivity (%) to Human Proinsulin [22]: > 15% | Cross-reactivity (%) to Human Proinsulin [23]: > 15% | Cross-reactivity (%) to Human Proinsulin [24]: > 30% | Cross-reactivity (%) to Human Proinsulin [25]: > 30% | 2S/N value [26]: 0.191 ng/mL | Cross-reactivity (%) to Human Proinsulin [27]: > 120% | 2S/N value [28]: 0.591 ng/mL | Cross-reactivity (%) to Human Proinsulin [29]: > 120% | 2S/N value [30]: 0.781 ng/mL | Cross-reactivity (%) to Human Proinsulin [31]: > 15% | Cross-reactivity (%) to Human Proinsulin [32]: > 120% | Cross-reactivity (%) to Human Proinsulin [33]: > 120% | Cross-reactivity (%) to Modified C-peptide [34]: 80% | 2S/N value [35]: 0.271 ng/mL | Cross-reactivity (%) to Human Proinsulin [36]: > 30% | Cross-reactivity (%) to Human Proinsulin [37]: > 15% | Cross-reactivity (%) to Modified C-peptide [38]: 98.5% | Cross-reactivity (%) to Modified C-peptide [39]: 38.3% | Cross-reactivity (%) to Modified C-peptide [40]: 35%
Substance: anti-human C-peptide monoclonal antibody PEP-001 (Dako)
